To fix the notation:
B1: GLS3000 P95A one-arm antibody (antibody, human IgG1, kappa, L234A L235A, N297A, name in Kabat numbering)
light: DIVMTQSPLSLPVTPGEPASISCRSSQSLVHSNRNTYLHWYQQKPGQAPRLLIYKVSNRFSGVPDRFSGSGSGTDFTLKISRVEAEDVGVYYCGQGTQVAYTFGQGTKLEIKRTVAAPSVFIFPPSDEQLKSGTASVVCLLNNFYPREAKVQWKVDNALQSGNSQESVTEQDSKDSTYSLSSTLTLSKADYEKHKVYACEVTHQGLSSPVTKSFNRGEC
heavy: QVQLVESGGGVVQPGRSLRLSCAASGFTFSNAWMHWVRQAPGKGLEWVAQIKAKSNNYATYYAESVKGRFTISRDDSKNSLYLQMNSLKTEDTAVYYCRYVHYGAYYGVDAWGQGTTVTVSSASTKGPSVFPLAPSSKSTSGGTAALGCLVKDYFPEPVTVSWNSGALTSGVHTFPAVLQSSGLYSLSSVVTVPSSSLGTQTYICNVNHKPSNTKVDKKVEPKSCDKTHTCPPCPAPEAAGGPSVFLFPPKPKDTLMISRTPEVTCVVVDVSHEDPEVKFNWYVDGVEVHNAKTKPREEQYASTYRVVSVLTVLHQDWLNGKEYKCKVSNKALPAPIEKTISKAKGQPREPQVYTLPPSRCELTKNQVSLSCAVKGFYPSDIAVEWESNGQPENNYKTTPPVLDSDGSFFLVSKLTVDKSRWQQGNVFSCSVMHEALHNHYTQKSLSLSPDYKDDDDK
chain: EPKSSDKTHTCPPCPAPELLGGPSVFLFPPKPKDTLMISRTPEVTCVVVDVSHEDPEVKFNWYVDGVEVHNAKTKPREEQYNSTYRVVSVLTVLHQDWLNGKEYKCKVSNKALPAPIEKTISKAKGQPREPQVCTLPPSRDELTKNQVSLWCLVKGFYPSDIAVEWESNGQPENNYKTTPPVLDSDGSFFLYSKLTVDKSRWQQGNVFSCSVMHEALHNRYTQKSLSLSP
B2: GLS3000 Q93R one-arm antibody (antibody, human IgG1, kappa, L234A L235A, N297A, name in Kabat numbering)
light: B1 light with Q98R, A100P
heavy: B1 heavy
chain: B1 chain
B3: GLS3000 P95E one-arm antibody (antibody, human IgG1, kappa, L234A L235A, N297A, name in Kabat numbering)
light: B1 light with A100E
heavy: B1 heavy
chain: B1 chain
B4: GLS3000 Q90P one-arm antibody (antibody, human IgG1, kappa, L234A L235A, N297A, name in Kabat numbering)
light: B1 light with Q95P, A100P
heavy: B1 heavy
chain: B1 chain
B5: GLS3000 S56E one-arm antibody (antibody, human IgG1, kappa, L234A L235A, N297A, name in Kabat numbering)
light: B1 light with S61E, A100P
heavy: B1 heavy
chain: B1 chain
B6: GLS3000 R77S one-arm antibody (antibody, human IgG1, kappa, L234A L235A, N297A, name in Kabat numbering)
light: B1 light with R82S, A100P
heavy: B1 heavy
chain: B1 chain
B7: GLS3000 R54P one-arm antibody (antibody, human IgG1, kappa, L234A L235A, N297A, name in Kabat numbering)
light: B1 light with R59P, A100P
heavy: B1 heavy
chain: B1 chain
B8: GLS3000 R54W one-arm antibody (antibody, human IgG1, kappa, L234A L235A, N297A, name in Kabat numbering)
light: B1 light with R59W, A100P
heavy: B1 heavy
chain: B1 chain
B9: GLS3000 Q90A one-arm antibody (antibody, human IgG1, kappa, L234A L235A, N297A, name in Kabat numbering)
light: B1 light with Q95A, A100P
heavy: B1 heavy
chain: B1 chain
B10: GLS3000 S52Y one-arm antibody (antibody, human IgG1, kappa, L234A L235A, N297A, name in Kabat numbering)
light: B1 light with S57Y, A100P
heavy: B1 heavy
chain: B1 chain
B11: GLS3000 Q90D one-arm antibody (antibody, human IgG1, kappa, L234A L235A, N297A, name in Kabat numbering)
light: B1 light with Q95D, A100P
heavy: B1 heavy
chain: B1 chain
B12: GLS3000 Q93P one-arm antibody (antibody, human IgG1, kappa, L234A L235A, N297A, name in Kabat numbering)
light: B1 light with Q98P, A100P
heavy: B1 heavy
chain: B1 chain
B13: GLS3000 R54E one-arm antibody (antibody, human IgG1, kappa, L234A L235A, N297A, name in Kabat numbering)
light: B1 light with R59E, A100P
heavy: B1 heavy
chain: B1 chain
B14: GLS3000 Q93A one-arm antibody (antibody, human IgG1, kappa, L234A L235A, N297A, name in Kabat numbering)
light: B1 light with Q98A, A100P
heavy: B1 heavy
chain: B1 chain
B15: GLS3000 R54G one-arm antibody (antibody, human IgG1, kappa, L234A L235A, N297A, name in Kabat numbering)
light: B1 light with R59G, A100P
heavy: B1 heavy
chain: B1 chain
B16: GLS3000 S56F one-arm antibody (antibody, human IgG1, kappa, L234A L235A, N297A, name in Kabat numbering)
light: B1 light with S61F, A100P
heavy: B1 heavy
chain: B1 chain
B17: GLS3000 Q90E one-arm antibody (antibody, human IgG1, kappa, L234A L235A, N297A, name in Kabat numbering)
light: B1 light with Q95E, A100P
heavy: B1 heavy
chain: B1 chain
B18: GLS3000 S52P one-arm antibody (antibody, human IgG1, kappa, L234A L235A, N297A, name in Kabat numbering)
light: B1 light with S57P, A100P
heavy: B1 heavy
chain: B1 chain
B19: GLS3000 P95D one-arm antibody (antibody, human IgG1, kappa, L234A L235A, N297A, name in Kabat numbering)
light: B1 light with A100D
heavy: B1 heavy
chain: B1 chain
B20: GLS3000 S56G one-arm antibody (antibody, human IgG1, kappa, L234A L235A, N297A, name in Kabat numbering)
light: B1 light with S61G, A100P
heavy: B1 heavy
chain: B1 chain
B21: GLS3000 P95L one-arm antibody (antibody, human IgG1, kappa, L234A L235A, N297A, name in Kabat numbering)
light: B1 light with A100L
heavy: B1 heavy
chain: B1 chain
B22: GLS3000 Q93E one-arm antibody (antibody, human IgG1, kappa, L234A L235A, N297A, name in Kabat numbering)
light: B1 light with Q98E, A100P
heavy: B1 heavy
chain: B1 chain
B23: GLS3000 S56H one-arm antibody (antibody, human IgG1, kappa, L234A L235A, N297A, name in Kabat numbering)
light: B1 light with S61H, A100P
heavy: B1 heavy
chain: B1 chain
B24: GLS3000 R54Q one-arm antibody (antibody, human IgG1, kappa, L234A L235A, N297A, name in Kabat numbering)
light: B1 light with R59Q, A100P
heavy: B1 heavy
chain: B1 chain
B25: GLS3000 R54S one-arm antibody (antibody, human IgG1, kappa, L234A L235A, N297A, name in Kabat numbering)
light: B1 light with R59S, A100P
heavy: B1 heavy
chain: B1 chain
B26: GLS3000 Q93D one-arm antibody (antibody, human IgG1, kappa, L234A L235A, N297A, name in Kabat numbering)
light: B1 light with Q98D, A100P
heavy: B1 heavy
chain: B1 chain
B27: GLS3000 S52Q one-arm antibody (antibody, human IgG1, kappa, L234A L235A, N297A, name in Kabat numbering)
light: B1 light with S57Q, A100P
heavy: B1 heavy
chain: B1 chain
B28: GLS3000 Q90S one-arm antibody (antibody, human IgG1, kappa, L234A L235A, N297A, name in Kabat numbering)
light: B1 light with Q95S, A100P
heavy: B1 heavy
chain: B1 chain
B29: GLS3000 P95G one-arm antibody (antibody, human IgG1, kappa, L234A L235A, N297A, name in Kabat numbering)
light: B1 light with A100G
heavy: B1 heavy
chain: B1 chain
B30: GLS3000 Q93S one-arm antibody (antibody, human IgG1, kappa, L234A L235A, N297A, name in Kabat numbering)
light: B1 light with Q98S, A100P
heavy: B1 heavy
chain: B1 chain
B31: GLS3000 P95S one-arm antibody (antibody, human IgG1, kappa, L234A L235A, N297A, name in Kabat numbering)
light: B1 light with A100S
heavy: B1 heavy
chain: B1 chain
B32: GLS3000 R54T one-arm antibody (antibody, human IgG1, kappa, L234A L235A, N297A, name in Kabat numbering)
light: B1 light with R59T, A100P
heavy: B1 heavy
chain: B1 chain

Positions count from the first letter of the chain named. Names may count otherwise.

This is an account of results in patent publication US20240270846A1 (published 2024).
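Also: CD3 epsilon homodimer amine-coupled on CM4 sensor chip, antibodies injected as analyte at 25 °C in HBS-EP+, ratio ≥0.8 taken as binding retained versus unaltered parent antibody.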

For the test, the target named is T1, CD3 epsilon homodimer protein (UniProt P07766 23-126).
T1 construct: Construct of the homodimer is not described; also called CD3 (CD3 epsilon)
T1 sequence (P07766 23-126): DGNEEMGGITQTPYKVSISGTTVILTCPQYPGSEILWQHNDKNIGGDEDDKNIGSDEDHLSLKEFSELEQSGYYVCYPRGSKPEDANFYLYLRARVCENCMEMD
The test can be described thus: SPR Biacore T200, CD3e homodimer on chip, antibody analyte. (SPR reads the build-up and loss of mass on a sensor chip optically.)
For the molecule B1, the “ratio of amounts bound (altered form/GLS3000)” value is 0.63.

B2: the “ratio of amounts bound (altered form/GLS3000)” value turned out to be 1.13.

Consider B3, for which the “ratio of amounts bound (altered form/GLS3000)” value was found to be 0.39.

As to B4, the “ratio of amounts bound (altered form/GLS3000)” value was 0.27.

In the case of B5, the “ratio of amounts bound (altered form/GLS3000)” value was 0.71.

Consider B6, for which the “ratio of amounts bound (altered form/GLS3000)” value was determined as 0.92.

Turning to B7, the “ratio of amounts bound (altered form/GLS3000)” value is 0.84.

On to B8, for which the “ratio of amounts bound (altered form/GLS3000)” value was found to be 0.78.

Take B9: the “ratio of amounts bound (altered form/GLS3000)” value was found to be 0.5.

As to B10, the “ratio of amounts bound (altered form/GLS3000)” value was found to be 1.12.

For B11, the “ratio of amounts bound (altered form/GLS3000)” value worked out at 0.19.

Take B12: the “ratio of amounts bound (altered form/GLS3000)” value stood at 0.25.

For B13, the “ratio of amounts bound (altered form/GLS3000)” value came to 0.58.

B14: the “ratio of amounts bound (altered form/GLS3000)” value amounted to 0.85.

Consider B15, for which the “ratio of amounts bound (altered form/GLS3000)” value amounted to 0.67.

Regarding B16, the “ratio of amounts bound (altered form/GLS3000)” value came out at 1.32.

On to B17, for which the “ratio of amounts bound (altered form/GLS3000)” value amounted to 0.86.

For B18, the “ratio of amounts bound (altered form/GLS3000)” value was 0.33.

In the case of B19, the “ratio of amounts bound (altered form/GLS3000)” value was 0.24.

As for B20, the “ratio of amounts bound (altered form/GLS3000)” value was 0.92.

In the case of B21, the “ratio of amounts bound (altered form/GLS3000)” value was 0.24.

Take B22: the “ratio of amounts bound (altered form/GLS3000)” value was 0.75.

In the case of B23, the “ratio of amounts bound (altered form/GLS3000)” value was determined as 1.05.

Regarding B24, the “ratio of amounts bound (altered form/GLS3000)” value was found to be 0.68.

Regarding B25, the “ratio of amounts bound (altered form/GLS3000)” value was determined as 0.79.

Turning to B26, the “ratio of amounts bound (altered form/GLS3000)” value turned out to be 0.72.

Turning to B27, the “ratio of amounts bound (altered form/GLS3000)” value stood at 1.05.

With B28, the “ratio of amounts bound (altered form/GLS3000)” value was determined as 0.73.

Consider B29, for which the “ratio of amounts bound (altered form/GLS3000)” value was found to be 0.37.

On to B30, for which the “ratio of amounts bound (altered form/GLS3000)” value is 0.96.

On to B31, for which the “ratio of amounts bound (altered form/GLS3000)” value was 0.43.

As for B32, the “ratio of amounts bound (altered form/GLS3000)” value turned out to be 0.65.
